From patent publication US20260028391A1
Several values for one entry are separate records, joined by “and”; a condition that tells them apart may be missing. Equal values may be shown once.

How the values were obtained:
[1] = target: biot-RSV-F wt (respiratory syncytial virus (RSV)); assay: BLI (Octet), biotinylated F on SA sensors, mAb 5 µg/ml
[2] = target: biot-MPV-F wt (metapneumovirus (MPV)); assay: as above
[3] = target: biot-MPV-F D280N (metapneumovirus (MPV)); assay: as above
[4] = target: RSV fusion glycoprotein (RSV-F) of the RSV used in the neutralization of Table 33 (respiratory syncytial virus, strain not stated); assay: cell-based or functional assay
[5] = target: fusion glycoprotein (F) of the MPV used in the neutralization of Table 34 (metapneumovirus); assay: cell-based or functional assay
[6] = target: biot-MPV-F D280N (metapneumovirus (MPV)); assay: BLI, SA sensor loaded with biot-MPV-F D280N (sheet title 'MPV-G D280N'), mAb 5 ug/ml, 4 min association, 6 min dissociation
[7] = target: MPV F D280N mutant expressed on transfected Expi293F cells (metapneumovirus (MPV)); assay: flow cytometry, transfected Expi293F cells, fixed and permeabilised
[8] = target: MPV F WT expressed on transfected Expi293F cells (metapneumovirus (MPV)); assay: as above
[9] = target: biot-MPV-F wt (metapneumovirus (MPV)); assay: BLI, SA sensor loaded with biot-MPV-F wt, mAb 5 ug/ml, 4 min association, 6 min dissociation
[10] = target: RSV-long strain fusion glycoprotein (F) (RSV, long strain) (UniProt P12568); assay: cell-based or functional assay
[11] = target: RSV-B B18537/62 F protein (RSV B, strain B18537/62) (UniProt P13843); assay: cell-based or functional assay
[12] = target: RSV-B B9320 F protein (RSV B, strain B9320); assay: cell-based or functional assay
[13] = target: biot-RSV-F wt (respiratory syncytial virus (RSV)); assay: BLI (Octet), biotinylated F on SA sensors, mAb 5 µg/ml; forced deamidation sample, day 13 at 40 °C
[14] = target: biot-MPV-F wt (metapneumovirus (MPV)); assay: as above
[15] = target: biot-MPV-F D280N (metapneumovirus (MPV)); assay: as above
[16] = target: biot-RSV-F wt (respiratory syncytial virus (RSV)); assay: BLI (Octet), biotinylated F on SA sensors, mAb 5 µg/ml; forced deamidation sample, day 7 at 40 °C
[17] = target: biot-MPV-F wt (metapneumovirus (MPV)); assay: as above
[18] = target: biot-MPV-F D280N (metapneumovirus (MPV)); assay: as above
[19] = target: biot-RSV-F wt (respiratory syncytial virus (RSV)); assay: BLI, SA sensor loaded with biot-RSV-F wt, mAb 5 ug/ml, 4 min association, 6 min dissociation
[20] = target: biot-RSV-F wt (respiratory syncytial virus (RSV)); assay: BLI (Octet), biotinylated F on SA sensors, mAb 5 µg/ml; forced deamidation sample, day 0
[21] = target: biot-MPV-F wt (metapneumovirus (MPV)); assay: as above
[22] = target: biot-MPV-F D280N (metapneumovirus (MPV)); assay: as above
[23] = target: biot-RSV-F wt (respiratory syncytial virus (RSV)); assay: BLI (Octet), biotinylated F on SA sensors, mAb 5 µg/ml; batch KYT
[24] = target: biot-MPV-F wt (metapneumovirus (MPV)); assay: as above
[25] = target: biot-MPV-F D280N (metapneumovirus (MPV)); assay: as above
[26] = target: RSV F A S433P-G446E (RSV A, strain A2) (UniProt P03420); assay: FACS, % binding to RSV F A variants
[27] = target: RSV F A N208Y-N671I (RSV A, strain A2) (UniProt P03420); assay: FACS, % binding to RSV F A variants
[28] = target: RSV F A S433P (RSV A, strain A2) (UniProt P03420); assay: FACS, % binding to RSV F A variants
[29] = target: MPV fusion glycoprotein with the D280N mutation (MPV-F N280), recombinant protein loaded on sensors (metapneumovirus (MPV), strain not stated); assay: same manner as Experiment 1, RUN10, MPV-F D280 or MPV-F N280 on the sensors (Example 6, Experiment 3)
[30] = target: fusion glycoprotein of the MPV D280 used in the neutralization assay of Example 3 (metapneumovirus (strain not stated)); assay: cell-based or functional assay
[31] = target: fusion glycoprotein of Human metapneumovirus-TN/96-213 (BEI NR-22243) (human metapneumovirus TN/96-213); assay: cell-based or functional assay
[32] = target: fusion glycoprotein of Human Metapneumovirus-GFP CAN97-83 (Vira Tree M121) (human metapneumovirus CAN97-83) (UniProt Q6WB98); assay: cell-based or functional assay
[33] = target: MPV fusion glycoprotein MPV-F D280 (metapneumovirus (strain not stated)); assay: SPR; sensors loaded with MPV-F, mAb in solution (Experiment 3)
[34] = target: MPV fusion glycoprotein MPV-F N280 (metapneumovirus (strain not stated)); assay: as above
[35] = target: MPV fusion glycoprotein MPV-F D280 (metapneumovirus (strain not stated)); assay: SPR; sensors loaded with F protein, mAb in solution
[36] = target: MPV fusion glycoprotein MPV-F N280 (metapneumovirus (strain not stated)); assay: as above
[37] = target: biot-MPV-F D280N (metapneumovirus (MPV)); assay: BLI, SA sensor loaded with biot-MPV-F D280N (sheet title 'MPV-G D280N'; head of the value column printed 'MPV-F', not 'KD (M)'), mAb 5 ug/ml, 4 min association, 6 min dissociation

B1: MPH12-rIgG1-LS (antibody, V domains shown)
VH: QVQLVESGGGLVKPGGSLRLSCVASGFTFSGFYMKWIRQAPGKGLEWVSSISASGSYTNYADSVEGRFTVSRDNAKNSLFLLMSSLRAEDTAVYYCARGDSYCGASACHGEFFHKWGQGTLVTVSS
VL: QSVLTQPPSVSGAPGQRVTISCTGSDSNIGADFDVHWYQQLPGTAPKLLIYGNINRPSGVPDRFSGSRSGTSAFLAITRLQAEDEADYYCQSYDRSLHYVFGAGTKVTVL
[1]
  Kd: 1200 pM
[2]
  Kd: < 1 pM
[3]
  Kd: 1010 pM
[4]
  IC50 (ng/mL) in neutralization against RSV: 12.9 ng/mL
[5]
  IC50 (ng/mL) in neutralization against MPV: 5.26 ng/mL

B2: MPK190-v1.1-rIgG1m17,1-LS (antibody, V domains shown)
VH: QVQLVESGGGLVKPGGSLTLSCAASGFSISGYGMNWVRQAPGRGLEWVASISASSTYIYYADSMKGRFTISRDNGKTSLYLQMKSLRAEDTAVYYCARAPIEPPYFDLWGRGTLVTVSS
VL: QSVLTQPPSVSGAPGQRVTISCTGSNSNIGAGYDVHWYQHLPGKAPKVLIYGNNNRPSVVPDRFSGSNSGASASLAISGLQAEDEADYFCQSYDRRLSGPIFGGGTKLTVL
[6]
  Kd: 402 pM
[2]
  Kd: < 1 pM
[3]
  Kd: 362 pM
[7]
  Binding (FACS) relative to parental mAb MPK190-v1.1: 1
[8]
  Binding (FACS) relative to parental mAb MPK190-v1.1: 1
[9]
  Kd: < 1 pM
[4]
  IC50 (ng/mL) in neutralization against RSV: 5.8 ng/mL
[5]
  IC50 (ng/mL) in neutralization against MPV: 0.705 ng/mL

B3: MPK190-rFab (Fab, V domains shown)
VH: EVQLVESGGGLVKPGGSLTLSCAASGFSISGYGMNWVRQAPGRGLEWVASISASSTYIYYADSMKGRFTISRDNGKTSLYLQMKSLRAEDTAVYYCARAPIEPPYFDLWGRGTLVTVSS
VL: QSVLTQPPSVSGAPGQRVTISCTGSNSNIGAGYDVHWYQHLPGKAPKVLIYGNNNRPSVVPDRFSGSNSGASASLAISGLQAEDEADYFCQSYDRRLSGPIFGGGTKLTVL
[10]
  EC50, virus neutralization (Fab testing): 97.9 pM
[11]
  EC50, virus neutralization (Fab testing): 63.3 pM
[12]
  EC50, virus neutralization (Fab testing): 32.5 pM

B4: MPK190-rIgG1-LS (antibody, V domains shown)
VH: EVQLVESGGGLVKPGGSLTLSCAASGFSISGYGMNWVRQAPGRGLEWVASISASSTYIYYADSMKGRFTISRDNGKTSLYLQMKSLRAEDTAVYYCARAPIEPPYFDLWGRGTLVTVSS
VL: QSVLTQPPSVSGAPGQRVTISCTGSNSNIGAGYDVHWYQHLPGKAPKVLIYGNNNRPSVVPDRFSGSNSGASASLAISGLQAEDEADYFCQSYDRRLSGPIFGGGTKLTVL
[6]
  Kd: 381 pM
[13]
  Kd: 304 pM
[14]
  Kd: 57.7 pM
[15]
  Kd: 733 pM
[9]
  Kd: < 1 pM
[16]
  Kd: 128 pM
[17]
  Kd: 15.9 pM
[18]
  Kd: 600 pM
[19]
  Kd: < 1 pM
[20]
  Kd: < 1 pM
[21]
  Kd: < 1 pM
[22]
  Kd: 441 pM
[23]
  Kd: 53.9 pM
[24]
  Kd: < 1 pM
[25]
  Kd: 370 pM

B5: MPK77-rIgG1-LS (antibody, V domains shown)
VH: EVQLVESGGGLVKPGGSLRLSCAASKSFSGYYMIWIRQAPGRGLEWIADISGSSTYTDYADSVKGRFTISRDNTRNTLYLQMNSLRPEDTAVYYCATEQVPSPGPFDLWGPGTLVTVSS
VL: QSVLTQPPSVSGAPGQRVIISCTGSSSNIGAGYDVHWYQQFPGTSPKLLIYRNTNRPSGVPDRFSGFKSGASAALAITGLQAEDEADYYCQSYDRSLSGWAFGGGTKVTVL
[6]
  Kd: 406 pM
[1]
  Kd: 2.28 pM
[2]
  Kd: < 1 pM
[3]
  Kd: 394 pM
[9]
  Kd: < 1 pM
[19]
  Kd: < 1 pM

B6: MPK65-v2-v1.2 (antibody, V domains shown)
VH: QVPLVQSGAEVKKPGESLKISCKGSGYSFINYWIGWVRQMPGKGLEWMGVIYPFDSDTKYSPSFQGHVTISADKSSNTAYVQWSSLKASDTAMYYCARFTFGIAVVTDDVSGEGQAFEIWGQGTMVTVSS
VL: QIVMMQSPATLSVSPGERATLSCRASQSVAGNLAWYQQRPGQAPRLLIYGASTRATGVPARFSGSGSETEFTLTISSLQSEDFAVYYCHQYSNLPQAFGQGTRLDIK
[26]
  % binding: 32.9%
[27]
  % binding: 0.38%
[28]
  % binding: 31.7%

B7: MPK15 (antibody, human IgG1, V domains shown)
VH: EVQLVESGGGLVKPGGSLRLSCTVSGITFSDAWMTWVRQAPGKGLEWVGRIKRKVDGETADYAPSVKGRFTISRDDSKSTLYLQMNSLKTEDTGLYYCLTTWSDQFWGQGTLVTVSS
VL: QSVVTQEPSLTVSPGGTVTLTCDSSSGAVTRGHYPFWFQQKPGQVPRTLIYDTSKKHSWTPARFSGSLLGDKAVLTLSGAQPEDEADYYCLLTYSGVRVFGGGTKLTVL
[29]
  Kd: 73 pM
[30]
  MPV D280 Neutralization - IC50: 3.81 ng/mL and 3.4 ng/mL
[31]
  MPV D280 Neutralization by MPK15: 15.3
[32]
  MPV D280 Neutralization by MPK15: 5.8
[33]
  Kd: 71 pM
[34]
  Kd: 72 pM
[35]
  Kd: 78.4 pM
[36]
  Kd: 57.4 pM

B8: MPK104-rIgG1-LS (antibody, V domains shown)
VH: EVQLVESGGGLVKPGGSLRLSCAASGFTIDGYGMNWVRQAPGKGLEWVSSISASSNYIYYADSMKGRFTISRDNGKNSLYLQMHSLRVEDTGVYYCARAPLEPPYFDLWGRGTLVTVSS
VL: QSVLTQPPSVSGAPGQRVTISCSGGSSNIGAGYDVHWYQQVPGKGPKVLIYGNNNRPSGVPDRFSGSNFGASASLAITGLQADDEADYFCQSYDRRLGGPVFGGGTKLTVL
[1]
  Kd: 306 pM
[2]
  Kd: < 1 pM
[3]
  Kd: 391 pM
[9]
  Kd: < 1 pM
[19]
  Kd: 37.3 pM
[37]
  Kd: 472 pM
